Positions of bridges follow the written chain, without caps; N, C: chain ends. Non-standard residues stand in square brackets, D forms with d. No end group written: not given here. Pen = CC(C)(S)[C@H](N)C(=O)O; βAla = NCCC(=O)O
B1: Peptide No. 288 (peptide)
peptide: RFXTGHFGXXYPCGG
modifications: Pen3; Sar9; NMeLeu10; intrachain disulfide; C-termini joined through a branching Lys
notes: dimer made as Peptide No. 280
B2: Peptide No. 25 (peptide)
peptide: QRFCGHF[βAla]LYPCNGP-NH2
modifications: disulfide 4-12; N-terminus assumed
SMILES: CC(C)C[C@@H]1NC(=O)CCNC(=O)[C@H](Cc2ccccc2)NC(=O)[C@H](Cc2c[nH]cn2)NC(=O)CNC(=O)[C@@H](NC(=O)[C@H](Cc2ccccc2)NC(=O)[C@H](CCCNC(=N)N)NC(=O)[C@@H](N)CCC(N)=O)CSSC[C@@H](C(=O)N[C@@H](CC(N)=O)C(=O)NCC(=O)N2CCC[C@H]2C(N)=O)NC(=O)[C@@H]2CCCN2C(=O)[C@H](Cc2ccc(O)cc2)NC1=O
notes: printed QRFCGHF-betaAla-LYPCNGP (no Thr)
B3: Peptide No. 289 (peptide)
peptide: RFXTGHFGXXYPC
modifications: Pen3; Sar9; NMeLeu10; intrachain disulfide; N-termini joined by Asp; linker amine acylated with PEG 30 kDa succinimidyl ester; C-terminal amide
notes: also called pegylated analog of Peptide No. 285
B4: Peptide No. 53 (peptide)
peptide: QRFXTGHFXGLYPCNGP
modifications: Pen4; D-Tyr9; disulfide; C-terminal amide
B5: Peptide No. 286 (peptide)
peptide: RFXTGHFGXXYPC
modifications: Pen3; Sar9; NMeLeu10; intrachain disulfide; N-termini joined by Glu (from Boc-Glu(OH)-OH) with a free amine; C-terminal amide
B6: Peptide No. 167 (peptide)
peptide: QRFVTGHFG[dP]LYPVNGP-NH2
modifications: N-terminus assumed
SMILES: CC(C)C[C@H](NC(=O)[C@H]1CCCN1C(=O)CNC(=O)[C@H](Cc1ccccc1)NC(=O)[C@H](Cc1c[nH]cn1)NC(=O)CNC(=O)[C@@H](NC(=O)[C@@H](NC(=O)[C@H](Cc1ccccc1)NC(=O)[C@H](CCCNC(=N)N)NC(=O)[C@@H](N)CCC(N)=O)C(C)C)[C@@H](C)O)C(=O)N[C@@H](Cc1ccc(O)cc1)C(=O)N1CCC[C@H]1C(=O)N[C@H](C(=O)N[C@@H](CC(N)=O)C(=O)NCC(=O)N1CCC[C@H]1C(N)=O)C(C)C
B7: Peptide No. 172 (peptide)
peptide: QRFVTGHFGXLYPWNGP
modifications: D-Pro10; unbridged; C-terminal amide
B8: Peptide No. 171 (peptide)
peptide: QRFVTGHFGXLYPYNGP
modifications: D-Pro10; unbridged; C-terminal amide
B9: Peptide No. 174 (peptide)
peptide: QRFVTGHFG[dP]IYPANGP-NH2
modifications: N-terminus assumed
SMILES: CC[C@H](C)[C@H](NC(=O)[C@H]1CCCN1C(=O)CNC(=O)[C@H](Cc1ccccc1)NC(=O)[C@H](Cc1c[nH]cn1)NC(=O)CNC(=O)[C@@H](NC(=O)[C@@H](NC(=O)[C@H](Cc1ccccc1)NC(=O)[C@H](CCCNC(=N)N)NC(=O)[C@@H](N)CCC(N)=O)C(C)C)[C@@H](C)O)C(=O)N[C@@H](Cc1ccc(O)cc1)C(=O)N1CCC[C@H]1C(=O)N[C@@H](C)C(=O)N[C@@H](CC(N)=O)C(=O)NCC(=O)N1CCC[C@H]1C(N)=O
B10: Peptide No. 175 (peptide)
peptide: QRFVTGHFG[dP]FYPANGP-NH2
modifications: N-terminus assumed
SMILES: CC(C)[C@H](NC(=O)[C@H](Cc1ccccc1)NC(=O)[C@H](CCCNC(=N)N)NC(=O)[C@@H](N)CCC(N)=O)C(=O)N[C@H](C(=O)NCC(=O)N[C@@H](Cc1c[nH]cn1)C(=O)N[C@@H](Cc1ccccc1)C(=O)NCC(=O)N1CCC[C@@H]1C(=O)N[C@@H](Cc1ccccc1)C(=O)N[C@@H](Cc1ccc(O)cc1)C(=O)N1CCC[C@H]1C(=O)N[C@@H](C)C(=O)N[C@@H](CC(N)=O)C(=O)NCC(=O)N1CCC[C@H]1C(N)=O)[C@@H](C)O
B11: Peptide No. 169 (peptide)
peptide: QRFVTGHFG[dP]LYPINGP-NH2
modifications: N-terminus assumed
SMILES: CC[C@H](C)[C@H](NC(=O)[C@@H]1CCCN1C(=O)[C@H](Cc1ccc(O)cc1)NC(=O)[C@H](CC(C)C)NC(=O)[C@H]1CCCN1C(=O)CNC(=O)[C@H](Cc1ccccc1)NC(=O)[C@H](Cc1c[nH]cn1)NC(=O)CNC(=O)[C@@H](NC(=O)[C@@H](NC(=O)[C@H](Cc1ccccc1)NC(=O)[C@H](CCCNC(=N)N)NC(=O)[C@@H](N)CCC(N)=O)C(C)C)[C@@H](C)O)C(=O)N[C@@H](CC(N)=O)C(=O)NCC(=O)N1CCC[C@H]1C(N)=O
B12: Peptide No. 176 (peptide)
peptide: QRFVTGHFG[dP]YYPANGP-NH2
modifications: N-terminus assumed
SMILES: CC(C)[C@H](NC(=O)[C@H](Cc1ccccc1)NC(=O)[C@H](CCCNC(=N)N)NC(=O)[C@@H](N)CCC(N)=O)C(=O)N[C@H](C(=O)NCC(=O)N[C@@H](Cc1c[nH]cn1)C(=O)N[C@@H](Cc1ccccc1)C(=O)NCC(=O)N1CCC[C@@H]1C(=O)N[C@@H](Cc1ccc(O)cc1)C(=O)N[C@@H](Cc1ccc(O)cc1)C(=O)N1CCC[C@H]1C(=O)N[C@@H](C)C(=O)N[C@@H](CC(N)=O)C(=O)NCC(=O)N1CCC[C@H]1C(N)=O)[C@@H](C)O
B13: Peptide No. 287 (peptide)
peptide: RFXTGHFGXXYPCG
modifications: Pen3; Sar9; NMeLeu10; intrachain disulfide; C-termini joined through a branching Lys
notes: dimer made as Peptide No. 280
B14: Peptide No. 151 (peptide)
peptide: QRF[Pen]TGHF[dF][dA]LYPCNGP-NH2
modifications: disulfide 4-14; N-terminus assumed
SMILES: CC(C)C[C@@H]1NC(=O)[C@@H](C)NC(=O)[C@@H](Cc2ccccc2)NC(=O)[C@H](Cc2ccccc2)NC(=O)[C@H](Cc2c[nH]cn2)NC(=O)CNC(=O)[C@H]([C@@H](C)O)NC(=O)[C@@H](NC(=O)[C@H](Cc2ccccc2)NC(=O)[C@H](CCCNC(=N)N)NC(=O)[C@@H](N)CCC(N)=O)C(C)(C)SSC[C@@H](C(=O)N[C@@H](CC(N)=O)C(=O)NCC(=O)N2CCC[C@H]2C(N)=O)NC(=O)[C@@H]2CCCN2C(=O)[C@H](Cc2ccc(O)cc2)NC1=O
B15: Peptide No. 26 (peptide)
peptide: QRFCTGHFGGLFPCNGP
modifications: disulfide; C-terminal amide
B16: Peptide No. 30 (peptide)
peptide: QRFCTGHFGGLYPXNGP
modifications: D-Cys14; disulfide; C-terminal amide
B17: Peptide No. 295 (peptide)
peptide: QRFXTGHFGXLYPXNGP
modifications: Pen4; D-Pro10; Pen14; disulfide; C-terminal amide
B18: Peptide No. 279 (peptide)
peptide: RFXTGHFGXXYPC
modifications: Pen3; Sar9; NMeLeu10; intrachain disulfide; N-termini joined by Bis-dPEG6 diacid linker; C-terminal amide
B19: Peptide No. 49 (peptide)
peptide: QRFXTGHFXGLYPCNGP
modifications: Pen4; D-Arg9; disulfide; C-terminal amide
B20: Peptide No. 96 (peptide)
peptide: QRXXTGHFGGLYPCNGP
modifications: D-Phe3; Pen4; disulfide; C-terminal amide
B21: Peptide No. 280 (peptide)
peptide: RFXTGHFGXXYPC
modifications: sequence analogous to Peptide No. 235; C-termini joined through a branching Lys (Fmoc-Lys(Fmoc)-OH); intrachain disulfide
notes: dimer
B22: Peptide No. 266 (peptide)
peptide: RFXTGAFGXXYPC
modifications: Pen3; Sar9; NMeLeu10; disulfide; C-terminal amide
B23: Peptide No. 111 (peptide)
peptide: QRFXTGHFXGLYPCNGP
modifications: Pen4; Sar9; disulfide; C-terminal amide
B24: Peptide No. 203 (peptide)
peptide: QRFXTGHFXPLYPCNGP
modifications: Pen4; D-Phe9; disulfide; C-terminal amide
B25: Peptide No. 211 (peptide)
peptide: FVTGHFG[dP]WYPA-NH2
modifications: N-terminus assumed
SMILES: CC(C)[C@H](NC(=O)[C@@H](N)Cc1ccccc1)C(=O)N[C@H](C(=O)NCC(=O)N[C@@H](Cc1c[nH]cn1)C(=O)N[C@@H](Cc1ccccc1)C(=O)NCC(=O)N1CCC[C@@H]1C(=O)N[C@@H](Cc1c[nH]c2ccccc12)C(=O)N[C@@H](Cc1ccc(O)cc1)C(=O)N1CCC[C@H]1C(=O)N[C@@H](C)C(N)=O)[C@@H](C)O
B26: Peptide No. 142 (peptide)
peptide: RFXTGHFGXLYPC
modifications: Pen3; D-Pro9; disulfide; C-terminal amide
B27: Peptide No. 105 (peptide)
peptide: QRFDTGHFGXLYPKNGP
modifications: D-Ala10; lactam bridge Asp4-Lys14 side chains; C-terminal amide

Molecular target: T1, soluble human FcRn (shFcRn) (human, UniProt P55899 24-297; P61769 21-119, biotinylated with Sulfo-NHS-LC-Biotin in the ELISA; amine-coupled to a CM5 chip in SPR)
T1 construct: also called biotinylated shFcRn
Assay: competition ELISA vs human IgG
Procedure: The wells were coated with 100 μl/well of 1 μg/ml biotinylated-shFcRn in Buffer A. The plate was sealed and incubated at 37° C. for 2 hours. Afterwards, the plate was washed with 200 μl/well of Buffer B (Buffer B: 100 mM MES pH 6, 150 mM NaCl, 0.5% BSA IgG-free (Jackson ImmunoResearch, West Grove, Pa.), 0.05% Tween-20). […] To allow for mixing, the plate was rocked for 2 minutes, sealed and incubated at 37° C. for 2 hours. […] The plate was covered, incubated for 30 minutes at room temperature and washed 4 times with 200 μl/well of ice-cold buffer B. SureBlue TMB substrate solution (100 μl/well, KPL, Gaithersburg, Md.) was added and the plate was allowed to incubate at room temperature until color developed, which took 5 to 10 minutes. Once color developed, 100 μl/well of TMB stop solution (KPL, Gaithersburg, Md.) was added and the absorbance was measured at 450 nm.

| IC50 [µM] | Binder |
| --- | --- |
| 0.016 | B1 |
| > 125 | B2 |
| 0.018 | B3 |
| 3.2 | B4 |
| 0.0056 | B5 |
| 93 | B6 |
| 150 | B7 |
| 150 | B8 |
| 94 | B9 |
| 200 | B10 |
| 72 | B11 |
| 230 | B12 |
| 0.02 | B13 |
| 4.3 | B14 |
| > 125 | B15 |
| 125 | B16 |
| 1.6 | B17 |
| 0.007 | B18 |
| 4.1 | B19 |
| 11.4 | B20 |
| 0.025 | B21 |

Molecular target: T1, soluble human FcRn (shFcRn)
Assay: SPR, pH 6
Procedure: The following steps were performed to cross-link soluble human or cynomolgus FcRn to the dextran surface of a CM5 sensor chip (Biacore AB, Uppsala, Sweden) by an amine coupling reaction involving 1-ethyl-(3-dimethylaminopropyl)-carbodiimide hydrochloride (EDC) (Biacore AB, Uppsala, Sweden) and N-hydroxysuccinimide (NHS) (Biacore AB, Uppsala, Sweden) as recommended by Biacore (BIAapplications Handbook, version AB, section 4.2, Biacore AB, Uppsala, Sweden). The FcRn protein was diluted in 50 mM sodium acetate, pH 4.5 (Biacore AB, Uppsala, Sweden) to a concentration of 10 to 30 µg/ml and used to coat one flow cell on the sensor chip. Residual sites on the FcRn flow cell were blocked with 1 M ethanolamine hydrochloride pH 8.5 (Biacore AB, Uppsala, Sweden). A control flow cell was blocked with ethanolamine for reference subtraction. For analysis of the monomeric peptides, FcRn was coated to a final density of 4000-5000 response units (RU). For analysis of the peptide dimers, FcRn was coated to a density of 2000-2500 RU. All SPR measurements were performed using a BIACORE 3000 Instrument (Biacore AB Uppsala, Sweden). For measurements done at either pH 6 or pH 7.4, experiments were performed in 50 mM phosphate, 100 mM sodium chloride, 0.01% surfactant P20 (Biacore AB, Uppsala, Sweden).
A. Representative Procedure for the Determination of Binding Constant of Monomeric Peptides Ten 2-fold dilutions of the peptide were injected over the FcRn-CM5 chip at a rate of 20 µl/min for 2 min. The peptide was dissociated from the chip for 2.5 minutes with buffer. Any remaining peptide was removed from the chip with a 30 second injection of HBS-P buffer (Biacore AB, Uppsala, Sweden) at a rate of 30 µl/min. Sensorgrams were generated and analyzed using BiaEval software version 3.1 (Biacore AB, Uppsala, Sweden). The equilibrium RU observed for each injection was plotted against concentration. The equilibrium K_D values were derived by analysis of the plots using the steady state affinity model included in the BiaEval software.

| Kd [µM] | Binder |
| --- | --- |
| 9.9 | B22 |
| 2 | B23 |
| 3.8 | B24 |
| 8 | B25 |
| 0.28 | B17 |
| 0.14 | B26 |
| 2.1 | B27 |

— patent US8906844B2 (SYNTONIX PHARMACEUTICALS, dated 2014)
